From patent US20090042291A1 (published 2009)

Key:
[1] = biological target: T1, human FcγRIIb on cells (HEK293T cells transfected with human FcγRIIb cDNA; primary human B cells) (human, UniProt P31994 43-310); experiment: flow cytometry on HEK293T cells transfected with human FcγRIIb, PE anti-human Fab detection
T1 construct: whole, on cells; also called CD32b
T1 sequence (looked up): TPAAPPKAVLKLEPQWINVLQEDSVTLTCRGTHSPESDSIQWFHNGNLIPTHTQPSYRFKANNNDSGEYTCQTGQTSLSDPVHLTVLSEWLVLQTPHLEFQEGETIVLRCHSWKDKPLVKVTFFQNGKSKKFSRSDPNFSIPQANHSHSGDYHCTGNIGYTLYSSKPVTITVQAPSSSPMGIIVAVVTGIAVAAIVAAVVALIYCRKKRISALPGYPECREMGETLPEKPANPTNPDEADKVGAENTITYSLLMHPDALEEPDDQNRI

[2] = biological target: T2, human FcγRIIb receptor protein (R&D Systems) (human, UniProt P31994 46-217, limits assumed); experiment: Biacore SPR
T2 construct: Bought
T2 sequence (looked up): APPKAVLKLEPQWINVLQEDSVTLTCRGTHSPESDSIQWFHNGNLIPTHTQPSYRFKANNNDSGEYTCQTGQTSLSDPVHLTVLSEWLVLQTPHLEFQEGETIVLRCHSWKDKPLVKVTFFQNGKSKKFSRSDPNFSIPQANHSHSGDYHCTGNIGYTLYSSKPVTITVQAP

B1: anti-CD19 HuAM4G7 IgG1 S267E/L328F (antibody)
chain 1: not shown
chain 2: DIVMTQSPATLSLSPGERATLSCRSSKSLQNVNGNTYLYWFQQKPGQSPQLLIYRMSNLNSGVPDRFSGSGSGTEFTLTISSLEPEDFAVYYCMQHLEYPITFGAGTKLEIKRTVAAPSVFIFPPSDEQLKSGTASVVCLLNNFYPREAKVQWKVDNALQSGNSQESVTEQDSKDSTYSLSSTLTLSKADYEKHKVYACEVTHQGLSSPVTKSFNRGEC
EC50 fold relative to WT IgG1 [1]: ~320 fold

B2: anti-CD19 HuAM4G7 IgG1 S267A (antibody)
chain 1: not shown
chain 2: B1 chain 2
Kd [2]: 408 nM
fold relative to native IgG1 [2]: 3.6 fold

B3: anti-CD19 HuAM4G7 IgG1 S267E (antibody)
chain 1: not shown
chain 2: B1 chain 2
Kd [2]: 71.9 nM
fold relative to native IgG1 [2]: 20.4 fold
